Laboratory results reported in patent US20030224972A1.

Molecular target: MC1-R
Experiment: cell-based or functional assay

## Recombinant mouse agouti signal protein (from UniProt Q03288 23-131) (ligand)
  inhibits activation of the MC1-R: 220 pM
